IntAct's records for PubMed 25150978

Target: arhg7_human ARHGEF7 (UniProt Q14155)

## Ras-related C3 botulinum toxin substrate 1 (Homo sapiens) (from UniProt P63000-1) G15A
  effect of a mutation on the interaction: increasing interaction strength
